Measured values reported in IntAct's records for PubMed 25465129.

B1: Amyloid beta A4 precursor protein-binding family B member 1-interacting protein (Mus musculus), Q8R5A3 (parent)
chain: MGESNEDIDQMFSTLLGEMDLLTQSLGVDTLPPPDPNPPREEFNYTVGFKDLNESLNALEDQDLDALMADLVADISEAEQRTIQAQKESSQNQDRFALLRASDGQGTASGGYGASAAAIDVSHHEEALPPPPVEPMLDLLPPPPPPPPPELLSKEEEEAKAKADKIKLALEKLKEAKVKKLVVKVHMDDSSTKSLMVDERQLARDVLDNLFEKTHCDCNVDWCLYEIYPELQIERVFEDHENVVEVLSDWTRDTENKVLFLEKEERYAVFKNPQNFYLDNKGKKENKETNEKMNAKNKEYLLEESFCGTSIIVPELEGALYLKEDGKKSWKRRYFLLRASGIYYVPKGKTKTSRDLACFIQFENVNIYYGIQCKMKYKAPTDHCFVLKHPQIQKESQYIKYLCCDDARTLSQWVMGIRIAKYGKTLYDNYQRAVARAGLASRWTNLGTVGTPMPAQPSTVSSGLKTGTSQPNGQMPQAIPSAGPPLQEAQTQIETTKDEKQGLGNHSPGATRENHRPKSSLPPPPPPVRRSSDTCGSPALPSKVKGPGTCTFPHPPENFLPPPPPPPPEEDNSGLLPPPPPPPYLEEPPDFVPPPPPPAAVEDSALPPPPPPPPCLSQEITKSSPLPPKKPLVPPKRQENQGLPGAPGNSEQDFMSDLMKALQKKRGNIP
B2: Ras-associated and pleckstrin homology domains-containing protein 1 (Homo sapiens), Q70E73 (parent)
chain: MEQLSDEEIDHGAEEDSDKEDQDLDKMFGAWLGELDKLTQSLDSDKPMEPVKRSPLRQETNMANFSYRFSIYNLNEALNQGETVDLDALMADLCSIEQELSSIGSGNSKRQITETKATQKLPVSRHTLKHGTLKGLSSSSNRIAKPSHASYSLDDVTAQLEQASLSMDEAAQQSVLEDTKPLVTNQHRRTASAGTVSDAEVHSISNSSHSSITSAASSMDSLDIDKVTRPQELDLTHQGQPITEEEQAAKLKAEKIRVALEKIKEAQVKKLVIRVHMSDDSSKTMMVDERQTVRQVLDNLMDKSHCGYSLDWSLVETVSELQMERIFEDHENLVENLLNWTRDSQNKLIFMERIEKYALFKNPQNYLLGKKETAEMADRNKEVLLEECFCGSSVTVPEIEGVLWLKDDGKKSWKKRYFLLRASGIYYVPKGKAKVSRDLVCFLQLDHVNVYYGQDYRNKYKAPTDYCLVLKHPQIQKKSQYIKYLCCDDVRTLHQWVNGIRIAKYGKQLYMNYQEALKRTESAYDWTSLSSSSIKSGSSSSSIPESQSNHSNQSDSGVSDTQPAGHVRSQSIVSSVFSEAWKRGTQLEESSKARMESMNRPYTSLVPPLSPQPKIVTPYTASQPSPPLPPPPPPPPPPPPPPPPPPPPLPSQSAPSAGSAAPMFVKYSTITRLQNASQHSGALFKPPTPPVMQSQSVKPQILVPPNGVVPPPPPPPPPPTPGSAMAQLKPAPCAPSLPQFSAPPPPLKIHQVQHITQVAPPTPPPPPPIPAPLPPQAPPKPLVTIPAPTSTKTVAPVVTQAAPPTPTPPVPPAKKQPAFPASYIPPSPPTPPVPVPPPTLPKQQSFCAKPPPSPLSPVPSVVKQIASQFPPPPTPPAMESQPLKPVPANVAPQSPPAVKAKPKWQPSSIPVPSPDFPPPPPESSLVFPPPPPSPVPAPPPPPPPTASPTPDKSGSPGKKTSKTSSPGGKKPPPTPQRNSSIKSSSGAEHPEPKRPSVDSLVSKFTPPAESGSPSKETLPPPAAPPKPGKLNLSGVNLPGVLQQGCVSAKAPVLSGRGKDSVVEFPSPPSDSDFPPPPPETELPLPPIEIPAVFSGNTSPKVAVVNPQPQQWSKMSVKKAPPPTRPKRNDSTRLTQAEISEQPTMATVVPQVPTSPKSSLSVQPGFLADLNRTLQRKSITRHGSLSSRMSRAEPTATMDDMALPPPPPELLSDQQKAGYGGSHISGYATLRRGPPPAPPKRDQNTKLSRDW

Variants of: B1
Conditions: with tln1_mouse Tln1, P26039
Sequence of tln1_mouse Tln1, P26039 (P26039 whole entry): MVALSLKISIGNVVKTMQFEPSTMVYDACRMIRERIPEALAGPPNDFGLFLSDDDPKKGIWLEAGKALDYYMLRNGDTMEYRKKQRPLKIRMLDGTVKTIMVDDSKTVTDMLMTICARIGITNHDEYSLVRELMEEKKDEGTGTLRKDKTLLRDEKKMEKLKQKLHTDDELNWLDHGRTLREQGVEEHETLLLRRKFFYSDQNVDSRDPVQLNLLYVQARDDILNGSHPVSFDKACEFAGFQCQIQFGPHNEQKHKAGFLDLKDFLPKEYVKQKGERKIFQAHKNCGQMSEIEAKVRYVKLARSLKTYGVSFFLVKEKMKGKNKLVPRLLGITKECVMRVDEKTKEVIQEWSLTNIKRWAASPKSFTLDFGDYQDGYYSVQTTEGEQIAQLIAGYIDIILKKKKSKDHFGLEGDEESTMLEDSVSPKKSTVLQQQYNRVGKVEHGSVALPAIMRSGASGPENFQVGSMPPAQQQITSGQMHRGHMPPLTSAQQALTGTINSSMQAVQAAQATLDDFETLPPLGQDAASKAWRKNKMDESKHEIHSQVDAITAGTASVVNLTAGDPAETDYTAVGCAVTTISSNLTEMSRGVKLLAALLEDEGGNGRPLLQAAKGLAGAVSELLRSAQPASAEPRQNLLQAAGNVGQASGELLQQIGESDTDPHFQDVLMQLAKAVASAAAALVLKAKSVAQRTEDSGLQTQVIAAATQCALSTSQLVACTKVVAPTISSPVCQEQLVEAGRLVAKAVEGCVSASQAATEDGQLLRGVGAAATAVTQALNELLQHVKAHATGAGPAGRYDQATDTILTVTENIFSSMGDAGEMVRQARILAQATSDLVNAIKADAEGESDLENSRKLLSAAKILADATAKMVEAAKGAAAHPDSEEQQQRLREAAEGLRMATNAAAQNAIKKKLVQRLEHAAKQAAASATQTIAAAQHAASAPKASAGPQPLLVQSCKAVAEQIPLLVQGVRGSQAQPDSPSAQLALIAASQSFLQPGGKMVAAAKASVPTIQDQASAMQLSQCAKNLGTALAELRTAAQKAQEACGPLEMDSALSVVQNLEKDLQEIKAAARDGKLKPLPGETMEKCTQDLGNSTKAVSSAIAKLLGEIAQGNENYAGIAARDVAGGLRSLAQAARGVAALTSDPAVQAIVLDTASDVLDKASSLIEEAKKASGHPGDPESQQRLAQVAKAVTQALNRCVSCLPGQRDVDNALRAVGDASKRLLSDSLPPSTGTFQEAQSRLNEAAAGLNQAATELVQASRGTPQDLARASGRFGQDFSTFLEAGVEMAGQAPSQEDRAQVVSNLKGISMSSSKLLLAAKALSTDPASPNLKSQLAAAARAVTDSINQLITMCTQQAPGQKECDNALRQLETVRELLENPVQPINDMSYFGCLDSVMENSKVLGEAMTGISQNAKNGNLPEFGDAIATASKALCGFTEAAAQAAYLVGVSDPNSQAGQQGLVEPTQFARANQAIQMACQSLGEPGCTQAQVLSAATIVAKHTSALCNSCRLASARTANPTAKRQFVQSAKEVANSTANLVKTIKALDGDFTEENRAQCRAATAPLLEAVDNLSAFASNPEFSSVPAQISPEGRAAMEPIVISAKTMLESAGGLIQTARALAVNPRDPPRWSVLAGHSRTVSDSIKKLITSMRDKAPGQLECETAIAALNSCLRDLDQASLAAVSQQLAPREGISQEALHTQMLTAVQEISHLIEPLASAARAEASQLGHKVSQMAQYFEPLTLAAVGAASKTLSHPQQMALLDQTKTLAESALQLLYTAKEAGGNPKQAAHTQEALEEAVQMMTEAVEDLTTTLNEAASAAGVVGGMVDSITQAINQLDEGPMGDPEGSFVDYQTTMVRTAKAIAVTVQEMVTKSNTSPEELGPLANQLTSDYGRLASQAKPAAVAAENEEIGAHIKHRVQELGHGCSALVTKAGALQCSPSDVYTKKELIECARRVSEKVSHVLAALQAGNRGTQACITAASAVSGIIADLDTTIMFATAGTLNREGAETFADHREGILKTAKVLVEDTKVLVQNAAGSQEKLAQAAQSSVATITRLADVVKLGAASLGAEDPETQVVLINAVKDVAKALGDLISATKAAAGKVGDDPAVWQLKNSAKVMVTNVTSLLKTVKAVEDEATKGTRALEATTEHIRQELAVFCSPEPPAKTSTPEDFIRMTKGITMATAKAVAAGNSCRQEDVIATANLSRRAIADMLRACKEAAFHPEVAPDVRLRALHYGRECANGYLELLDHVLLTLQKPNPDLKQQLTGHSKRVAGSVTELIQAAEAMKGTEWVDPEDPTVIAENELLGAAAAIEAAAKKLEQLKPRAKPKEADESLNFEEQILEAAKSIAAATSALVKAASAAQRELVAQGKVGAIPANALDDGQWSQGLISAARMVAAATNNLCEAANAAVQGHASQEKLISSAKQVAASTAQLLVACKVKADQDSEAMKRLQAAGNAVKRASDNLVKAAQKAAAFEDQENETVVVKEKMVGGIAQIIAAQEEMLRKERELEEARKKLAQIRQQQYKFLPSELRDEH

effect of a mutation on the interaction	Variant
disrupting interaction strength	E18A
disrupting interaction strength	S13G
decreasing interaction strength	D9A
disrupting interaction strength	L15Y

Variants of: B1
Conditions: with tln1_mouse Tln1, P26039
Remark: another data set of the same source

effect of a mutation on the interaction	Variant
decreasing interaction strength	S13G

Variants of: B2
Conditions: with tln1_mouse Tln1, P26039

effect of a mutation on the interaction	Variant
increasing interaction strength	G29S
